# Measured values as given in patent US20230357340A1 (APRILBIO, published 2023).
# T1: recombinant human IL-18 (human, UniProt Q14116 37-193)
# T1 sequence (looked up): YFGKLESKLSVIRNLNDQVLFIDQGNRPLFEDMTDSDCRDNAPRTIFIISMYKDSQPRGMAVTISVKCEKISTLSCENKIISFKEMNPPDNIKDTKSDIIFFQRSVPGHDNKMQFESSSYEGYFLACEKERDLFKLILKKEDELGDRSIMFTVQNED
# T2: recombinant mouse IL-18 protein (mouse, UniProt P70380 36-192)
# T2 sequence (looked up): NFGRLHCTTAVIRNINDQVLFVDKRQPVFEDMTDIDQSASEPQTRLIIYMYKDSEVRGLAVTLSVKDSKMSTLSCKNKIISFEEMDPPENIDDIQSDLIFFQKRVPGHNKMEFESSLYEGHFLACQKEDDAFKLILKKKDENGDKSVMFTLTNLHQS
# Tests used:
# recombinant human IL-18 [1] = molecular target: T1, recombinant human IL-18; assay: cell-based or functional assay
# [2] = molecular target: T2, recombinant mouse IL-18 protein; assay: cell-based or functional assay
# recombinant human IL-18 [3] = molecular target: T1, recombinant human IL-18; assay: SPR KD of this filing compared with a literature BIAcore value (Kim et al. 2000)
# Experimental: (§1) Surface Plasmon Resonance (SPR) assay was performed by Wide River Institute of Immunology (Seoul National University, Seoul, KR) to measure the binding affinity, equilibrium dissociation constant (KD), of APB-R3 to recombinant human IL-18 (Prospec) and human serum albumin (Sigma) by using BiaCore™ T200 (GE Healthcare), Sensor Chip CM5 (Cytiva), and HBS-EP+(Cytiva), as a running buffer. APB-R3 was immobilized by using Amine Coupling Kit (GE Healthcare) in pH 4.5 and the analyte of human IL-18 was diluted and prepared at 62.5 nM, 31.3 nM, 15.6 nM, 7.8 nM, 3.9 nM, and 1.95 nM, and the analyte of human serum albumin was diluted and prepared at 1,250 nM, 625 nM, 313 nM, 156 nM, 78 nM, 39 nM, and 19.5 nM. Kinetics between APB-R3 and human IL-18 or human serum albumin was analyzed by 1:1 binding fitting.
# recombinant human IL-18 [4] = molecular target: T1, recombinant human IL-18; assay: SPR, BiaCore T200, APB-R3 amine-coupled on CM5 chip, human IL-18 as analyte, 1:1 fit
# Experimental: as §1
# human serum albumin = molecular target: T3, human serum albumin (human, UniProt P02768 25-609); assay: SPR, BiaCore T200, APB-R3 amine-coupled on CM5 chip, human serum albumin as analyte, 1:1 fit
# T3 construct: also called HSA; Human serum albumin (Sigma)
# T3 sequence (P02768 25-609 limits assumed): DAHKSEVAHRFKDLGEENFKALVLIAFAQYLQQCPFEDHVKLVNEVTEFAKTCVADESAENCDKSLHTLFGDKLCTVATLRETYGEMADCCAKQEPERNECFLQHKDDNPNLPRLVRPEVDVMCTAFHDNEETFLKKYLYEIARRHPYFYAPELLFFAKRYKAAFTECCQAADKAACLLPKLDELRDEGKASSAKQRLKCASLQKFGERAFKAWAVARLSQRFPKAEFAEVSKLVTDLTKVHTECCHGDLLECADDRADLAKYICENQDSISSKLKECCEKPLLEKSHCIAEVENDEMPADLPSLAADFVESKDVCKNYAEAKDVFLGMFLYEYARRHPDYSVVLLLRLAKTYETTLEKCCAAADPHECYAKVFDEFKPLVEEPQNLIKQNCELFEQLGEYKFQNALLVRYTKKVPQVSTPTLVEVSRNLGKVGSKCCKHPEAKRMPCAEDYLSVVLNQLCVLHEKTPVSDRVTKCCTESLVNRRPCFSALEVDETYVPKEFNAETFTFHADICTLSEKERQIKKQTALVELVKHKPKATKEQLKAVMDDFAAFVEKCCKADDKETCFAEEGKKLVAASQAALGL
# Experimental: as §1
binder,measurement,setting,value
"APB-R3 (recombinant fusion protein of anti-serum albumin Fab SL335 and human IL-18BP; heavy chain SL335H-peptide linker-IL-18BP, light chain SL335L) (other, The IL-18BP part is glycosylated; also called APB-R3 protein) heavy: QVQLVQSGGGPVKPGGSLRLSCAASGFMFRAYSMNWVRQAPGKGLEWVSSISSSGRYIHYADSVKGRFTISRDNAKNSLYLQMNSLRAEDTAVYYCARETVMAGKALDYWGQGTLVTVSSASTKGPSVFPLAPSSKSTSEGTAALGCLVKDYFPEPVTVSWNSGALTSGVHTFPAVLQSSGLYSLSSVVTVPSSSLGTQTYICNVNHKPSNTKVDKKVEPKSSGSAPAPGSTPVSQTTTAATASVRSTKDPCPSQPPVFPAAKQCPALEVTWPEVEVPLNGTLSLSCVACSRFPNFSILYWLGNGSFIEHLPGRLWEGSTSRERGSTGTQLCKALVLEQLTPALHSTNFSCVLVDPEQVVQRHVVLAQLWAGLRATLPPTQEALPSSHSSPQQQG light: DIVLTQSPGTLSLSPGETATLSCRASQSVGSNLAWYQQKPGQAPRLLIYGASTGATGVPARFSGSRSGTDFTLTITSLQPEDFATYYCQQYYSFLAKTFGQGTQLEIKRTVAAPSVFIFPPSDEQLKSGTASVVCLLNNFYPREAKVQWKVDNALQSGNSQESVTEQDSKDSTYSLSNTLTLSKADYEKHKVYACEVTHQGLSSPVTKSFNRGES",IC50 of inhibition of IL-18-induced IFN-γ production in KG-1 cells,recombinant human IL-18 [1],0.0419 nM
same,IC50 (read off the curve); mouse IL-18-induced IFN-γ secretion by mouse CD4+ T cells,[2],~0.4 nM
same,fold higher binding affinity than human IL-18BPa (literature KD 399 pM),recombinant human IL-18 [3],~6 fold
same,Kd,recombinant human IL-18 [4],0.0609 nM
same,koff,recombinant human IL-18 [4],2.48e-05 s⁻¹
same,kon,recombinant human IL-18 [4],406000 M⁻¹ s⁻¹
same,Kd,human serum albumin,16.8 nM
same,koff,human serum albumin,0.00157 s⁻¹
same,kon,human serum albumin,93800 M⁻¹ s⁻¹
